Our source for the Kd and K half values is article PMC3950707.

Data set [1] relates to LexA. Nature of the data set: single-molecule FRET (smTIRF), koff/kon. The conditions noted are these: smTIRF and PIFE on DNA: 10 mM Tris-HCl pH 8.0, 130 mM NaCl, 10% glycerol, 0.005% Tween20, 1% BME (0.1 mg/ml BSA in smTIRF and LexA PIFE), nucleosome smTIRF and ….
In data set [2] the test system is Gal4(1-147) (Saccharomyces cerevisiae). The data set is described as follows: single-molecule PIFE intensity histograms (smTIRF). To be noted: Hill 2; Fig 4 legend gives 5 +/- 1; koff << 5e-4 s-1; internal aminoC6dT in both primers; smTIRF and PIFE on DNA: 10 mM Tris-HCl pH 8.0, 130 mM NaCl, 10% glycerol, 0.005% Tween20, 1% BME (0.1 mg/ml BSA in smTIRF and LexA PIFE); nucleosome smTIRF and ….

For data set [3] the test system is unchanged. Nature of the data set: ensemble PIFE. The conditions noted are these: 100 pM DNA (titration-limited), Hill 1.5; legend error 5; internal aminoC6dT in both primers; smTIRF and PIFE on DNA: 10 mM Tris-HCl pH 8.0, 130 mM NaCl, 10% glycerol, 0.005% Tween20, 1% BME (0.1 mg/ml BSA in smTIRF and LexA PIFE); nucleosome smTIRF and ….
Data set [4] has the same test system. Nature of the data set: EMSA. To be noted: 200 pM DNA (titration-limited), Hill 1.5; legend 240 +/- 10; poly-dIdC; internal aminoC6dT in both primers; smTIRF and PIFE on DNA: 10 mM Tris-HCl pH 8.0, 130 mM NaCl, 10% glycerol, 0.005% Tween20, 1% BME (0.1 mg/ml BSA in smTIRF and LexA PIFE); nucleosome smTIRF and …. For orientation: In EMSA bound probe runs differently from free probe, usually more slowly.

The subject of data set [5] is LexA. Nature of the data set: ensemble PIFE. The conditions noted are these: 0.2 nM DNA, non-cooperative fit; aminoC6 at 5' end; aminoC6dT in reverse primer; smTIRF and PIFE on DNA: 10 mM Tris-HCl pH 8.0, 130 mM NaCl, 10% glycerol, 0.005% Tween20, 1% BME (0.1 mg/ml BSA in smTIRF and LexA PIFE); nucleosome smTIRF and ….
For data set [6], the system named is LexA. Nature of the data set: single-molecule PIFE (smTIRF), koff/kon. To be noted: aminoC6 at 5' end; aminoC6dT in reverse primer; smTIRF and PIFE on DNA: 10 mM Tris-HCl pH 8.0, 130 mM NaCl, 10% glycerol, 0.005% Tween20, 1% BME (0.1 mg/ml BSA in smTIRF and LexA PIFE); nucleosome smTIRF and ….
Data set [7] has as its system Gal4(1-147) (Saccharomyces cerevisiae). The data set is described as follows: single-molecule FRET (smTIRF), koff/kon. To be noted: aminoC6 at 5' end; smTIRF and PIFE on DNA: 10 mM Tris-HCl pH 8.0, 130 mM NaCl, 10% glycerol, 0.005% Tween20, 1% BME (0.1 mg/ml BSA in smTIRF and LexA PIFE); nucleosome smTIRF and ….

For LexA dinucleosome array, the Kd (as a rule, a measure of binding affinity in units of concentration) in the data set with LexA [1] (internal aminoC6dT) is 40000 nM.

With dsDNA-Gal4, the K half in data set [2] worked out at 5 pM; in data set [3], 0.042 nM; in data set [4] it was 0.242 nM.

In the case of dsDNA-LexA, the results for the Kd in the data set with LexA [5] and in the data set on LexA [6] were 0.13 nM and 0.07 nM, respectively.

Take nucDNA-Gal4 mononucleosome: the Kd in data set [7] is 0.051 nM.

Turning to nucDNA-LexA mononucleosome, in the data set with LexA [1] (aminoC6 at 5' end), the Kd was found to be 40000 nM.
